Assay results: PMC5507294 (PLoS ONE, 2017)

Legend:
[1] = biological target: T1, PP2A catalytic subunit (PP2Ac) (human (endogenous in HECs), UniProt P67775 1-309); assay: co-IP; GSK-3β, PR55α or PP2Ac immunoprecipitated (antibody with protein A or protein G agarose, 90 min at 4°C) from RIPA lysates of HECs with equal amounts of protein; immunoblot for β-catenin; cells 3 d in KGM or in CR culture (F+Y+J2); settings: partners not purified
T1 construct: catalytic (C) subunit of protein phosphatase 2A, endogenous in primary human ectocervical cells (HECs); also called PP2A C subunit; source: endogenous, lysate of primary human ectocervical cells (HECs) in RIPA buffer
T1 sequence (P67775 whole entry): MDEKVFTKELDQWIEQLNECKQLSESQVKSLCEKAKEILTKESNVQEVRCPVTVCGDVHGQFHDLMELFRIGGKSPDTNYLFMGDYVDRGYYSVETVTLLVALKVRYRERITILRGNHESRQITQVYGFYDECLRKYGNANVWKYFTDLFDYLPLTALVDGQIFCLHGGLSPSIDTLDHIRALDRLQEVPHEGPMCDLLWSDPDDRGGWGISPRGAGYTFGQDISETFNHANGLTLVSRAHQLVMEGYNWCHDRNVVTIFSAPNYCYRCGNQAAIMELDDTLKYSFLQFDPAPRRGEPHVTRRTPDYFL

[2] = biological target: T2, PR55α, the α isoform of the 55 kDa B-type regulatory subunit of PP2A (human (endogenous in HECs), UniProt P63151 1-447); assay: as above; settings: partners not purified
T2 construct: PR55α, α isoform of the 55 kDa B-type regulatory subunit of protein phosphatase 2A, endogenous in primary human ectocervical cells (HECs); also called PP2A regulatory subunit; source: endogenous, lysate of primary human ectocervical cells (HECs) in RIPA buffer
T2 sequence (looked up): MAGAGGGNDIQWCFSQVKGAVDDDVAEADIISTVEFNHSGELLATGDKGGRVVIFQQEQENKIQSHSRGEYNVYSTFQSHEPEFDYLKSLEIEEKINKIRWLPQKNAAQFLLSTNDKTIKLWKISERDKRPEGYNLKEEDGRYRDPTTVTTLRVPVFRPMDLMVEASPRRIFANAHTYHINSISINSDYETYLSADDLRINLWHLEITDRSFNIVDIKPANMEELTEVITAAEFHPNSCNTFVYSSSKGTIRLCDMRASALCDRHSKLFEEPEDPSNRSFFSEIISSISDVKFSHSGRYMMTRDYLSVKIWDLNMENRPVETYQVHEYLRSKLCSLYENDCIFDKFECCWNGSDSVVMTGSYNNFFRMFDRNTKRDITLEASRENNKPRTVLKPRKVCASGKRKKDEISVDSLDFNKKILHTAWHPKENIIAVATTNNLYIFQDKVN

fold more co-precipitated in CR cells than in KGM [1]: 3.8 fold
fold more co-precipitated in CR cells than in KGM [2]: 25 fold
B1: β-catenin (natural protein, human (endogenous in HECs), UniProt P35222 1-781, looked up)
chain: MATQADLMELDMAMEPDRKAAVSHWQQQSYLDSGIHSGATTTAPSLSGKGNPEEEDVDTSQVLYEWEQGFSQSFTQEQVADIDGQYAMTRAQRVRAAMFPETLDEGMQIPSTQFDAAHPTNVQRLAEPSQMLKHAVVNLINYQDDAELATRAIPELTKLLNDEDQVVVNKAAVMVHQLSKKEASRHAIMRSPQMVSAIVRTMQNTNDVETARCTAGTLHNLSHHREGLLAIFKSGGIPALVKMLGSPVDSVLFYAITTLHNLLLHQEGAKMAVRLAGGLQKMVALLNKTNVKFLAITTDCLQILAYGNQESKLIILASGGPQALVNIMRTYTYEKLLWTTSRVLKVLSVCSSNKPAIVEAGGMQALGLHLTDPSQRLVQNCLWTLRNLSDAATKQEGMEGLLGTLVQLLGSDDINVVTCAAGILSNLTCNNYKNKMMVCQVGGIEALVRTVLRAGDREDITEPAICALRHLTSRHQEAEMAQNAVRLHYGLPVVVKLLHPPSHWPLIKATVGLIRNLALCPANHAPLREQGAIPRLVQLLVRAHQDTQRRTSMGGTQQQFVEGVRMEEIVEGCTGALHILARDVHNRIVIRGLNTIPLFVQLLYSPIENIQRVAAGVLCELAQDKEAAEAIEAEGATAPLTELLHSRNEGVATYAAAVLFRMSEDKPQDYKKRLSVELTSSLFRTEPMAWNETADLGLDIGAQGEPLGYRQDDPSYRSFHSGGYGQDALGMDPMMEHEMGGHHPGADYPVDGLPDLGHAQDLMDGLPPGDSNQLAWFDTDL
notes: β-catenin, endogenous in primary human ectocervical cells (HECs); Endogenous protein; its phosphorylation state in the co-precipitate was not determined; source: endogenous, lysate of primary human ectocervical cells (HECs) in RIPA buffer
